# US20230002480A1
# Tests used:
# Assay in all cases: cell-based or functional assay
# [1] = biological target: HIV-1 Env of pseudovirus CNE19 (HIV-1)
# [2] = biological target: HIV-1 Env of pseudovirus ZM249M.PL1 (HIV-1)
# [3] = biological target: HIV-1 Env of pseudovirus 1006_11_C3_1601 (HIV-1)
# [4] = biological target: HIV-1 Env of pseudovirus REJO4541.67 (HIV-1)
# [5] = biological target: HIV-1 Env of pseudovirus 6811.v7.c18 (HIV-1)
# [6] = biological target: HIV-1 Env of pseudovirus C2101.c01 (HIV-1)
# [7] = biological target: HIV-1 Env of pseudovirus Ce703010054_2A2 (HIV-1)
# [8] = biological target: HIV-1 Env of pseudovirus CNE8 (HIV-1)
# [9] = biological target: HIV-1 Env of pseudovirus BJOX010000.06.2 (HIV-1)
# [10] = biological target: HIV-1 Env of pseudovirus CAP210.2.00.E8 (HIV-1)
# [11] = biological target: HIV-1 Env of pseudovirus 7030102001E5(Rev-) (HIV-1)
# [12] = biological target: HIV-1 Env of pseudovirus BF1266.431a (HIV-1)
# [13] = biological target: HIV-1 Env of pseudovirus Ce1172_H1 (HIV-1)
# [14] = biological target: HIV-1 Env of pseudovirus 620345.c01 (HIV-1)
# [15] = biological target: HIV-1 Env of pseudovirus P1981_C5_3 (HIV-1)
# [16] = biological target: HIV-1 Env of pseudovirus 231966.c02 (HIV-1)
# [17] = biological target: HIV-1 Env of pseudovirus AC10.0.29 (HIV-1)
# [18] = biological target: HIV-1 Env of pseudovirus R3265.c06 (HIV-1)
# [19] = biological target: HIV-1 Env of pseudovirus CAAN5342.A2 (HIV-1)
# [20] = biological target: HIV-1 Env of pseudovirus ZM135M.PL10a (HIV-1)
# [21] = biological target: HIV-1 Env of pseudovirus 246F C1G (HIV-1)
# [22] = biological target: HIV-1 Env of pseudovirus HIV-16845-2.22 (HIV-1)
# [23] = biological target: HIV-1 Env of pseudovirus 6244_13_B5_4576 (HIV-1)
# [24] = biological target: HIV-1 Env of pseudovirus WEAU_d15_410_787 (HIV-1)
# [25] = biological target: HIV-1 Env of pseudovirus 211-9 (HIV-1)
# [26] = biological target: HIV-1 Env of pseudovirus T255-34 (HIV-1)
# [27] = biological target: HIV-1 Env of pseudovirus R1166.c01 (HIV-1)
# [28] = biological target: HIV-1 Env of pseudovirus CNE21 (HIV-1)
# [29] = biological target: HIV-1 Env of pseudovirus 6545.v4.c1 (HIV-1)
# [30] = biological target: HIV-1 Env of pseudovirus Ce2010_F5 (HIV-1)
# [31] = biological target: HIV-1 Env of pseudovirus MS208.A1 (HIV-1)
# [32] = biological target: HIV-1 Env of pseudovirus WITO4160.33 (HIV-1)
# [33] = biological target: HIV-1 Env of pseudovirus CNE52 (HIV-1)
# [34] = biological target: HIV-1 Env of pseudovirus Q259.d2.17 (HIV-1)
# [35] = biological target: HIV-1 Env of pseudovirus RHPA4259.7 (HIV-1)
# [36] = biological target: HIV-1 Env of pseudovirus THRO4156.18 (HIV-1)
# [37] = biological target: HIV-1 Env of pseudovirus P0402_c2_11 (HIV-1)
substance,measurement,setting,value
N49P6 (antibody),IC50,[1],0.044 µg/mL
same,IC80,[1],0.156 µg/mL
same,MPI,[1],100
same,IC50,[2],0.112 µg/mL
same,IC80,[2],0.376 µg/mL
same,MPI,[2],100
same,IC50,[3],0.068 µg/mL
same,IC80,[3],0.209 µg/mL
same,MPI,[3],100
same,IC50,[4],0.066 µg/mL
same,IC80,[4],0.215 µg/mL
same,MPI,[4],100
same,IC50,[5],0.238 µg/mL
same,IC80,[5],1.01 µg/mL
same,MPI,[5],100
same,IC50,[6],0.14 µg/mL
same,IC80,[6],0.597 µg/mL
same,MPI,[6],100
same,IC50,[7],0.245 µg/mL
same,IC80,[7],0.841 µg/mL
same,MPI,[7],100
same,IC50,[8],0.072 µg/mL
same,IC80,[8],0.245 µg/mL
same,MPI,[8],100
same,IC50,[9],0.681 µg/mL
same,IC80,[9],3.53 µg/mL
same,MPI,[9],100
same,IC50,[10],22.6 µg/mL
same,IC80,[10],> 50 µg/mL
same,MPI,[10],73
same,IC50,[11],0.354 µg/mL
same,IC80,[11],1.17 µg/mL
same,MPI,[11],100
same,IC50,[12],0.083 µg/mL
same,IC80,[12],0.283 µg/mL
same,MPI,[12],100
same,IC50,[13],14.4 µg/mL
same,IC80,[13],47.3 µg/mL
same,MPI,[13],82
same,IC50,[14],22.9 µg/mL
same,IC80,[14],> 50 µg/mL
same,MPI,[14],70
same,IC50,[15],0.31 µg/mL
same,IC80,[15],0.708 µg/mL
same,MPI,[15],100
same,IC50,[16],0.339 µg/mL
same,IC80,[16],1.62 µg/mL
same,MPI,[16],100
same,IC50,[17],32.3 µg/mL
same,IC80,[17],> 50 µg/mL
same,MPI,[17],67
same,IC50,[18],0.101 µg/mL
same,IC80,[18],0.443 µg/mL
same,MPI,[18],100
same,IC50,[19],0.657 µg/mL
same,IC80,[19],1.83 µg/mL
same,MPI,[19],100
same,IC50,[20],0.494 µg/mL
same,IC80,[20],1.77 µg/mL
same,MPI,[20],99
same,IC50,[21],0.513 µg/mL
same,IC80,[21],2.51 µg/mL
same,MPI,[21],99
same,IC50,[22],0.692 µg/mL
same,IC80,[22],3.75 µg/mL
same,MPI,[22],100
same,IC50,[23],0.095 µg/mL
same,IC80,[23],0.328 µg/mL
same,MPI,[23],100
same,IC50,[24],0.07 µg/mL
same,IC80,[24],0.188 µg/mL
same,MPI,[24],100
same,IC50,[25],8.49 µg/mL
same,IC80,[25],27.7 µg/mL
same,MPI,[25],93
same,IC50,[26],0.076 µg/mL
same,IC80,[26],0.392 µg/mL
same,MPI,[26],100
same,IC50,[27],0.102 µg/mL
same,IC80,[27],0.344 µg/mL
same,MPI,[27],100
same,IC50,[28],0.832 µg/mL
same,IC80,[28],6.52 µg/mL
same,MPI,[28],99
same,IC50,[29],24.5 µg/mL
same,IC80,[29],> 50 µg/mL
same,MPI,[29],76
same,IC50,[30],0.124 µg/mL
same,IC80,[30],0.749 µg/mL
same,MPI,[30],100
same,IC50,[31],0.11 µg/mL
same,IC80,[31],0.436 µg/mL
same,MPI,[31],100
same,IC50,[32],0.096 µg/mL
same,IC80,[32],0.277 µg/mL
same,MPI,[32],100
same,IC50,[33],0.028 µg/mL
same,IC80,[33],0.095 µg/mL
same,MPI,[33],100
same,IC50,[34],24.4 µg/mL
same,IC80,[34],> 50 µg/mL
same,MPI,[34],75
same,IC50,[35],0.117 µg/mL
same,IC80,[35],0.443 µg/mL
same,MPI,[35],100
same,IC50,[36],12.5 µg/mL
same,IC80,[36],38.4 µg/mL
same,MPI,[36],89
same,IC50,[37],3.54 µg/mL
same,IC80,[37],19 µg/mL
same,MPI,[37],99
